Where a chain is given by its changes, count along the chain named. Names and notes keep the numbering of the source.

For the assay, the target named is T1, human mature interleukin-1β (IL-1β, amino acids 117-269) (human).
T1 construct: Human mature IL-1β, amino acids 117-269; Expressed from pET-28bTEV; source: E. coli BL21 CodonPlus (DE3) RIL, purified (HisTrap, TEV cleavage, size-exclusion chromatography); not shown: His6, N-terminal, cleaved
Briefly: time-resolved fluorometric immunoassay (TRFIA); 60 pmol IL-8 or IL-1β coated on wells; emHofQ wild type and mutants 5 nM-2 μM, 4°C overnight; Eu-N1 anti-6xHis antibody; apparent Kd. Particulars: both partners purified.

T1 sequence (chain, as listed by the source): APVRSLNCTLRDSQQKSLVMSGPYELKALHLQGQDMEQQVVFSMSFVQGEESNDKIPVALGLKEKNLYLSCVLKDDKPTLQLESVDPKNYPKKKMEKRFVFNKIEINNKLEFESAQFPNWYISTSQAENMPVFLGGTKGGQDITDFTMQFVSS

B1: emHofQ_L1 (H136A, F137A, K139A) (domain or fragment)
chain: QNPVFSIRLKQAPLVPTLQQLALAHNTNLIIDDELQGTVSLQLENVDLDQLFRSVAKIKQLDLWQENGIYYFTKGDTNTKFAGKMEEPFPLSLPMAEEPAQLNTATIKLAAAAASEVMKSLTGGSGSLLSPNGSITFDDRSNLLLIQDEPRSVRNIKKLIKELDKPIEQ
notes: they already carry the substitutions; Secretin HofQ of Aggregatibacter actinomycetemcomitans, extramembranous domain, residues 27-195; The printed gene begins with ATG (Met, in the NdeI site) and ends with CTC GAG (Leu-Glu, XhoI site) before the His tag of pET36b; also called emHofQ mutant L1; source: E. coli BL21 CodonPlus (DE3) RIL, induced overnight at 16°C, purified (HisTrap, size-exclusion …)
Regarding B1, the Kd was 450 ± 160 nM.

B2: emHofQ_L2 (D165A, R166A) (domain or fragment)
chain: B1 chain with A110H, A111F, A113K, D139A, R140A
notes: they already carry the substitutions; Secretin HofQ of Aggregatibacter actinomycetemcomitans, extramembranous domain, residues 27-195; The printed gene begins with ATG (Met, in the NdeI site) and ends with CTC GAG (Leu-Glu, XhoI site) before the His tag of pET36b; also called emHofQ mutant L2; source: E. coli BL21 CodonPlus (DE3) RIL, induced overnight at 16°C, purified (HisTrap, size-exclusion …)
Consider B2, for which the Kd was found to be 330 ± 70 nM.

B3: emHofQ_L1L2 (H136A, F137A, K139A, D165A, R166A) (domain or fragment)
chain: B1 chain with D139A, R140A
notes: they already carry the substitutions; Secretin HofQ of Aggregatibacter actinomycetemcomitans, extramembranous domain, residues 27-195; The printed gene begins with ATG (Met, in the NdeI site) and ends with CTC GAG (Leu-Glu, XhoI site) before the His tag of pET36b; also called emHofQ mutant L1L2; source: E. coli BL21 CodonPlus (DE3) RIL, induced overnight at 16°C, purified (HisTrap, size-exclusion …)
On to B3, for which the Kd came out at 440 ± 70 nM.

Source of the values: PMC6086316, “Interactions between the Aggregatibacter actinomycetemcomitans secretin HofQ and host cytokines indicate a link between natural competence and interleukin-8 uptake” (Virulence, 2018).
